The test concerns the target T1, IL-1R1 on MRC-5 cells (ATCC CCL-171) (human, UniProt P14778 18-569).
T1 sequence (looked up): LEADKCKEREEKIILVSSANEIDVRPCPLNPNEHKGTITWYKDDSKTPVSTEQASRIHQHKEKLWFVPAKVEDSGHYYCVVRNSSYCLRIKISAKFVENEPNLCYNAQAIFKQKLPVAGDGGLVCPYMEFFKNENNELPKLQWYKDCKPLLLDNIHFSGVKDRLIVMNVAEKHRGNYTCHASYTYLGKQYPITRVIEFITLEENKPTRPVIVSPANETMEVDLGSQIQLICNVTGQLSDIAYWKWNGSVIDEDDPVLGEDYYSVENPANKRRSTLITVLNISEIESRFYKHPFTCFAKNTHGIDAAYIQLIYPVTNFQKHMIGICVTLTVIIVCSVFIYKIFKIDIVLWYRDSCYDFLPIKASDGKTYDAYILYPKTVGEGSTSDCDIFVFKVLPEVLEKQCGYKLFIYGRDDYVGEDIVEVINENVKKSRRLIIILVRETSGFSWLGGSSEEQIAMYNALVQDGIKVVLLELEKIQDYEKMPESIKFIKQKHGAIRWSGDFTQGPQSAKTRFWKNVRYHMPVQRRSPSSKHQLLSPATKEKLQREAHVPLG
Nature of the test: cell-based or functional assay.

Positions count from the first letter of the chain named.

B1: DOM4-122-6 (other)
VL: DIQMTQSPSSLSASVGDRVTITCRASQWIGRELRWYQQKPGKAPMFLIYHASRLQSGVPSRFSGSGSGTDFTLTISSLQPEDFATYYCQQYHGWPLTFGQGTKVEIKR
For the molecule B1, the “ND50, inhibition of IL-1-induced IL-8 release from MRC-5 cells” value (“ND50, inhibition” below) is ~10 nM.

B2: DOM4-122-23 (other)
VL: B1 VL with S56R
On to B2, for which the “ND50, inhibition” value is ~1 nM.

B3: DOM4-129-1 (other)
VL: B1 VL with W28N, G30D, S56R, G93D, W94F
As for B3, the “ND50, inhibition” value is ~10 nM.

These data come from patent US20090155283A1 (published 2009).
